Results on two molecules are retold here after patent US20100092489A1 (Genmab, published 2010).

Where only a bound is given, the exact number is not on record here.

The EC50 is the concentration needed to bring the measured effect to its halfway point. By Kd is commonly meant the concentration at which binding is half-saturated.

Assay [1] addresses T1, human CD38 expressed on cells (CHO-CD38, Daudi-luc, fresh multiple myeloma tumor cells) (human, UniProt P28907 1-300).
T1 construct: the cell that carries it is named under assay in each row; also called CD38-CHO; cellular expressed CD38
As to the kind of experiment: flow cytometry on CHO-CD38 cells, rabbit anti-human IgG-FITC. A general note: A flow cytometer gives signals particle by particle.
Experimental: (§1) After harvesting and counting, Daudi-luc cells, CHO cells transfected with CD38 and control CHO cells were resuspended in PBS (1×10⁶ cells/ml). Then, cells were put in 96-well V-bottom plates (100 μl/well) and washed twice in PBS-BSA (PBS supplemented with 0.1% BSA and 0.02% Na-azide). Thereafter, 50 μl antibody solution in PBS-BSA was added to the cells (4° C., 30 min). After washing three times in PBS-BSA, 50 μl (1:400 dilution) of rabbit anti-human IgG-FITC in PBS-BSA was added (4° C. in the dark, 30 min). Cells were washed three times and specific binding of CD38-antibodies to CHO-CD38 and Daudi-luc cells was detected by flow cytometry.

Assay [2] concerns the target T1, human CD38 expressed on cells …. As to the kind of experiment: cell-based or functional assay.
Assay [3] has the same target. As to the kind of experiment: flow cytometry on fresh MM tumor cells, FITC-labeled antibody.
The target is the same in assay [4]. As to the kind of experiment: flow cytometry on Daudi-luc cells, rabbit anti-human IgG-FITC.
Experimental: as §1
Assay [5] has the same target. As to the kind of experiment: cell-based or functional assay. The source holds these as a separate data set.
Assay [6] shares this target. As to the kind of experiment: cell-based or functional assay. This is another data set of the same source.
Assay [7] addresses T2, HA-CD38 (HA-tagged extracellular domain of human CD38, wild type) (human, UniProt P28907 43-300).
T2 construct: The signal peptide SPHMM of the construct is not part of the secreted protein; also called HA-tagged CD38; wt human CD38; not shown: N-terminal HA-tag introduced by PCR primer cd38forha
As to the kind of experiment: SPR, Biacore 3000, 25° C., antibody immobilized on CM-5 chip, HA-tagged CD38 flowed over; mean of 3 experiments ± SD.

The target of assay [8] is T1, human CD38 expressed on cells …. As to the kind of experiment: cell-based or functional assay. The source holds these as a separate data set.

B1: antibody -024 (antibody, human IgG1, V domains shown)
VH: EVQLVQSGAEVKKPGESLKISCKGSGYSFSNYWIGWVRQMPGKGLEWMGIIYPHDSDARYSPSFQGQVTFSADKSISTAYLQWSSLKASDTAMYYCARHVGWGSRYWYFDLWGRGTLVTVSS
VL: EIVLTQSPATLSLSPGERATLSCRASQSVSSYLAWYQQKPGQAPGLLIYDASNRASGIPARFSGSGSGTDFTLTISSLEPEDFAVYYCQQRSNWPLTFGGGTKVEIK
notes: Human monoclonal IgG1 antibody; Recombinant form made with human IgG1 heavy chain constant region (pConG1f0.4) and kappa light chain constant region (pConKappa0.4)
In assay [1], B1 gave an EC50 of 0.08 µg/mL. In assay [2], the “EC50 CD38-CHO, CDC” value came out at 0.24 µg/mL and the “EC50 Daudi-luc, CDC” value is more than 90 µg/mL. In addition, a half-maximal response in assay [3] (EC50) required 0.02 µg/mL. In assay [4], this molecule registered an EC50 of 0.05 µg/mL. In addition, in assay [5], the “EC50 Daudi-luc, ADCC (51Cr release)” value was found to be 9.7 ng/mL and the “EC50 MM cells, ADCC (51Cr release)” value came out at 56 ng/mL.

B2: antibody -003 (antibody, human IgG1, V domains shown)
VH: not shown
VL: DIQMTQSPSSLSASVGDRVTITCRASQGISSWLAWYQQKPEKAPKSLIYAASSLQSGVPSRFSGSGSGTDFTLTISSLQPEDFATYYCQQYNSYPRTFGQGTKVEIK
notes: Human monoclonal IgG1 antibody; Recombinant form made with human IgG1 heavy chain constant region (pConG1f0.4) and kappa light chain constant region (pConKappa0.4); FITC-labelled in some assays; also called HuMab -003; -003-2F5
Take B2: the EC50 in assay [1] is 0.54 µg/mL. Further, in assay [2], the “EC50 CD38-CHO, CDC” value came out at 3.14 µg/mL and the “EC50 Daudi-luc, CDC” value was more than 90 µg/mL. Also, the “EC50, CDC of CHO-CD38 cells (n = 2)” value in assay [6] came out at 4.5 µg/mL. Also, the midpoint of the response in assay [3], the EC50, lay at 0.56 µg/mL. Moreover, the response in assay [4] was half-maximal at 0.26 µg/mL (EC50). For the same molecule, in assay [7], the Ka stood at 1.14e+09 M⁻¹ and binding was put at a Kd of 0.885 nM. In assay [5], the “EC50 Daudi-luc, ADCC (51Cr release)” value came out at 9 ng/mL and the “EC50 MM cells, ADCC (51Cr release)” value worked out at 27 ng/mL. In assay [8], the “Log EC50, ADCC of Daudi target cells (n=5)” value stood at 1.17.
